Experimental data published in patent US7608586B2, “Soluble low-density lipoprotein receptor related protein binds directly to Alzheimer's amyloid-beta peptide” (The University of Rochester, priority 2003, dated 2009).
“Also recorded” adds a separate entry of the source.

Tests used:
[1] = biological target: T1, LRP-1 at the blood-brain barrier (Mus musculus, UniProt Q91ZX7); test: Brain clearance studies: efflux of 125I-Aβ from brain ISF across the blood-brain barrier; format: in vivo; conditions: RAP 1 μM, αLRP-1 60 μg/ml, NI IgG 60 μg/ml, 30 min
T1 construct: from tissue; host or cells: living mouse brain (C57BL/6, RAP null and littermate controls), microinjection into brain ISF
Procedure: All studies were performed according to National Institutes of Health guidelines using an approved institutional protocol. […] Briefly a stainless steel guide cannula was implanted stereotaxically into the right caudate-putamen of anesthetized mice (0.5 mg/kg ketamine and 5 mg/kg xylazine I.P.). Coordinates for tip of the cannula were 0.9 mm anterior and 1.9 mm lateral to the bregma and 2.9 mm below the surface of the brain. Animals were allowed to recover after surgery prior to radiotracer studies. […] When the effects of the different unlabeled molecular reagents were tested, they were injected simultaneously with radiolabled ligands. […] Brain and blood were sampled 30 min after tracers injection and prepared for radioactivity analysis by TCA, HPLC and SDS-PAGE/immunoprecipitation analysis to determine the molecular forms of test-tracers. […] For SDS-PAGE analysis, TCA precipitated samples were resuspended in 1% SDS, vortexed and incubated at 55° C. for 5 min, then neutralized, boiled for 3 min, homogenized, and analyzed by electrophoresis in 10% Tris-Tricine gels followed by fluorography.
The percentage of Aβ cleared through the BBB was calculated as [(1−Nb(Aβ)/Ni(Aβ))−(1−Nb(inulin)/Ni(inulin))]×100, using a standard time of 30 min (3). […]

LRP-1 cluster II = biological target: T2, LRP-1 cluster II (Homo sapiens, UniProt Q07954); test: Surface plasmon resonance binding of Aβ peptides to immobilized LRP-1 cluster II; conditions: RAP 500 nM
T2 construct: cluster II (i.e., Arg786 to Leu1165 as numbered in Herz et al., 1988); made in house; host or cells: stably transfected baby hamster kidney (BHK) cells
T2 sequence (Q07954 786-1165): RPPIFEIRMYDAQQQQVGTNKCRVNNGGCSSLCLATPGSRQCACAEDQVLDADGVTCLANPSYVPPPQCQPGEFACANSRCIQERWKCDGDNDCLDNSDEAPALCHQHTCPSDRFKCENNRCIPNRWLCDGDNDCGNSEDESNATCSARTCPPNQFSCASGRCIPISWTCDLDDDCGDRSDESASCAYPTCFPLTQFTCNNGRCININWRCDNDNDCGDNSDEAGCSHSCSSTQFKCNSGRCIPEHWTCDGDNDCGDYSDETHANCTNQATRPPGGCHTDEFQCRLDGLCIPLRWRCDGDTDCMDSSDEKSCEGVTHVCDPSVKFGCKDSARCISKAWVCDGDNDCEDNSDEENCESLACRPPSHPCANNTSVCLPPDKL
Procedure: (§1) RAP was used at 500 nM. Ligand solution was replaced with buffer to initiate dissociation. […] Apparent affinity constants Kd(app) were inferred from the ratio koff(app)/kon(app). Data are based on three to five measurements using six to nine different concentrations for each measurement. Data are presented as the mean±SEM. Analysis was performed using BIACORE X biosensor system (Uppsala, Sweden) and BIA evaluation 3.0 software (Biocore, Sweden).

[2] = biological target: T3, LRP-1 on isolated brain capillaries (Mus musculus, UniProt Q91ZX7); test: Brain capillary uptake (in vitro clearance of 125I-Aβ by isolated brain capillaries); format: cell-based; conditions: for lower affinity (Ki) for LRP-mediated clearance on brain capillaries than Aβ1-40: 125I-Aβ1-40 as test-ligand, unlabeled peptide 40 nM
T3 construct: from tissue; host or cells: isolated brain capillaries of wild-type and RAP null mice

LRP-1 cluster IV = biological target: T4, LRP-1 cluster IV (Homo sapiens, UniProt Q07954); test: Surface plasmon resonance binding of Aβ peptides to immobilized LRP-1 cluster IV; conditions: RAP 500 nM
T4 construct: cluster IV (i.e., His3313 to Leu3759 as numbered in Herz et al., 1988); made in house; host or cells: stably transfected baby hamster kidney (BHK) cells
Procedure: as §1

T3 sequence (Q91ZX7 20-4545): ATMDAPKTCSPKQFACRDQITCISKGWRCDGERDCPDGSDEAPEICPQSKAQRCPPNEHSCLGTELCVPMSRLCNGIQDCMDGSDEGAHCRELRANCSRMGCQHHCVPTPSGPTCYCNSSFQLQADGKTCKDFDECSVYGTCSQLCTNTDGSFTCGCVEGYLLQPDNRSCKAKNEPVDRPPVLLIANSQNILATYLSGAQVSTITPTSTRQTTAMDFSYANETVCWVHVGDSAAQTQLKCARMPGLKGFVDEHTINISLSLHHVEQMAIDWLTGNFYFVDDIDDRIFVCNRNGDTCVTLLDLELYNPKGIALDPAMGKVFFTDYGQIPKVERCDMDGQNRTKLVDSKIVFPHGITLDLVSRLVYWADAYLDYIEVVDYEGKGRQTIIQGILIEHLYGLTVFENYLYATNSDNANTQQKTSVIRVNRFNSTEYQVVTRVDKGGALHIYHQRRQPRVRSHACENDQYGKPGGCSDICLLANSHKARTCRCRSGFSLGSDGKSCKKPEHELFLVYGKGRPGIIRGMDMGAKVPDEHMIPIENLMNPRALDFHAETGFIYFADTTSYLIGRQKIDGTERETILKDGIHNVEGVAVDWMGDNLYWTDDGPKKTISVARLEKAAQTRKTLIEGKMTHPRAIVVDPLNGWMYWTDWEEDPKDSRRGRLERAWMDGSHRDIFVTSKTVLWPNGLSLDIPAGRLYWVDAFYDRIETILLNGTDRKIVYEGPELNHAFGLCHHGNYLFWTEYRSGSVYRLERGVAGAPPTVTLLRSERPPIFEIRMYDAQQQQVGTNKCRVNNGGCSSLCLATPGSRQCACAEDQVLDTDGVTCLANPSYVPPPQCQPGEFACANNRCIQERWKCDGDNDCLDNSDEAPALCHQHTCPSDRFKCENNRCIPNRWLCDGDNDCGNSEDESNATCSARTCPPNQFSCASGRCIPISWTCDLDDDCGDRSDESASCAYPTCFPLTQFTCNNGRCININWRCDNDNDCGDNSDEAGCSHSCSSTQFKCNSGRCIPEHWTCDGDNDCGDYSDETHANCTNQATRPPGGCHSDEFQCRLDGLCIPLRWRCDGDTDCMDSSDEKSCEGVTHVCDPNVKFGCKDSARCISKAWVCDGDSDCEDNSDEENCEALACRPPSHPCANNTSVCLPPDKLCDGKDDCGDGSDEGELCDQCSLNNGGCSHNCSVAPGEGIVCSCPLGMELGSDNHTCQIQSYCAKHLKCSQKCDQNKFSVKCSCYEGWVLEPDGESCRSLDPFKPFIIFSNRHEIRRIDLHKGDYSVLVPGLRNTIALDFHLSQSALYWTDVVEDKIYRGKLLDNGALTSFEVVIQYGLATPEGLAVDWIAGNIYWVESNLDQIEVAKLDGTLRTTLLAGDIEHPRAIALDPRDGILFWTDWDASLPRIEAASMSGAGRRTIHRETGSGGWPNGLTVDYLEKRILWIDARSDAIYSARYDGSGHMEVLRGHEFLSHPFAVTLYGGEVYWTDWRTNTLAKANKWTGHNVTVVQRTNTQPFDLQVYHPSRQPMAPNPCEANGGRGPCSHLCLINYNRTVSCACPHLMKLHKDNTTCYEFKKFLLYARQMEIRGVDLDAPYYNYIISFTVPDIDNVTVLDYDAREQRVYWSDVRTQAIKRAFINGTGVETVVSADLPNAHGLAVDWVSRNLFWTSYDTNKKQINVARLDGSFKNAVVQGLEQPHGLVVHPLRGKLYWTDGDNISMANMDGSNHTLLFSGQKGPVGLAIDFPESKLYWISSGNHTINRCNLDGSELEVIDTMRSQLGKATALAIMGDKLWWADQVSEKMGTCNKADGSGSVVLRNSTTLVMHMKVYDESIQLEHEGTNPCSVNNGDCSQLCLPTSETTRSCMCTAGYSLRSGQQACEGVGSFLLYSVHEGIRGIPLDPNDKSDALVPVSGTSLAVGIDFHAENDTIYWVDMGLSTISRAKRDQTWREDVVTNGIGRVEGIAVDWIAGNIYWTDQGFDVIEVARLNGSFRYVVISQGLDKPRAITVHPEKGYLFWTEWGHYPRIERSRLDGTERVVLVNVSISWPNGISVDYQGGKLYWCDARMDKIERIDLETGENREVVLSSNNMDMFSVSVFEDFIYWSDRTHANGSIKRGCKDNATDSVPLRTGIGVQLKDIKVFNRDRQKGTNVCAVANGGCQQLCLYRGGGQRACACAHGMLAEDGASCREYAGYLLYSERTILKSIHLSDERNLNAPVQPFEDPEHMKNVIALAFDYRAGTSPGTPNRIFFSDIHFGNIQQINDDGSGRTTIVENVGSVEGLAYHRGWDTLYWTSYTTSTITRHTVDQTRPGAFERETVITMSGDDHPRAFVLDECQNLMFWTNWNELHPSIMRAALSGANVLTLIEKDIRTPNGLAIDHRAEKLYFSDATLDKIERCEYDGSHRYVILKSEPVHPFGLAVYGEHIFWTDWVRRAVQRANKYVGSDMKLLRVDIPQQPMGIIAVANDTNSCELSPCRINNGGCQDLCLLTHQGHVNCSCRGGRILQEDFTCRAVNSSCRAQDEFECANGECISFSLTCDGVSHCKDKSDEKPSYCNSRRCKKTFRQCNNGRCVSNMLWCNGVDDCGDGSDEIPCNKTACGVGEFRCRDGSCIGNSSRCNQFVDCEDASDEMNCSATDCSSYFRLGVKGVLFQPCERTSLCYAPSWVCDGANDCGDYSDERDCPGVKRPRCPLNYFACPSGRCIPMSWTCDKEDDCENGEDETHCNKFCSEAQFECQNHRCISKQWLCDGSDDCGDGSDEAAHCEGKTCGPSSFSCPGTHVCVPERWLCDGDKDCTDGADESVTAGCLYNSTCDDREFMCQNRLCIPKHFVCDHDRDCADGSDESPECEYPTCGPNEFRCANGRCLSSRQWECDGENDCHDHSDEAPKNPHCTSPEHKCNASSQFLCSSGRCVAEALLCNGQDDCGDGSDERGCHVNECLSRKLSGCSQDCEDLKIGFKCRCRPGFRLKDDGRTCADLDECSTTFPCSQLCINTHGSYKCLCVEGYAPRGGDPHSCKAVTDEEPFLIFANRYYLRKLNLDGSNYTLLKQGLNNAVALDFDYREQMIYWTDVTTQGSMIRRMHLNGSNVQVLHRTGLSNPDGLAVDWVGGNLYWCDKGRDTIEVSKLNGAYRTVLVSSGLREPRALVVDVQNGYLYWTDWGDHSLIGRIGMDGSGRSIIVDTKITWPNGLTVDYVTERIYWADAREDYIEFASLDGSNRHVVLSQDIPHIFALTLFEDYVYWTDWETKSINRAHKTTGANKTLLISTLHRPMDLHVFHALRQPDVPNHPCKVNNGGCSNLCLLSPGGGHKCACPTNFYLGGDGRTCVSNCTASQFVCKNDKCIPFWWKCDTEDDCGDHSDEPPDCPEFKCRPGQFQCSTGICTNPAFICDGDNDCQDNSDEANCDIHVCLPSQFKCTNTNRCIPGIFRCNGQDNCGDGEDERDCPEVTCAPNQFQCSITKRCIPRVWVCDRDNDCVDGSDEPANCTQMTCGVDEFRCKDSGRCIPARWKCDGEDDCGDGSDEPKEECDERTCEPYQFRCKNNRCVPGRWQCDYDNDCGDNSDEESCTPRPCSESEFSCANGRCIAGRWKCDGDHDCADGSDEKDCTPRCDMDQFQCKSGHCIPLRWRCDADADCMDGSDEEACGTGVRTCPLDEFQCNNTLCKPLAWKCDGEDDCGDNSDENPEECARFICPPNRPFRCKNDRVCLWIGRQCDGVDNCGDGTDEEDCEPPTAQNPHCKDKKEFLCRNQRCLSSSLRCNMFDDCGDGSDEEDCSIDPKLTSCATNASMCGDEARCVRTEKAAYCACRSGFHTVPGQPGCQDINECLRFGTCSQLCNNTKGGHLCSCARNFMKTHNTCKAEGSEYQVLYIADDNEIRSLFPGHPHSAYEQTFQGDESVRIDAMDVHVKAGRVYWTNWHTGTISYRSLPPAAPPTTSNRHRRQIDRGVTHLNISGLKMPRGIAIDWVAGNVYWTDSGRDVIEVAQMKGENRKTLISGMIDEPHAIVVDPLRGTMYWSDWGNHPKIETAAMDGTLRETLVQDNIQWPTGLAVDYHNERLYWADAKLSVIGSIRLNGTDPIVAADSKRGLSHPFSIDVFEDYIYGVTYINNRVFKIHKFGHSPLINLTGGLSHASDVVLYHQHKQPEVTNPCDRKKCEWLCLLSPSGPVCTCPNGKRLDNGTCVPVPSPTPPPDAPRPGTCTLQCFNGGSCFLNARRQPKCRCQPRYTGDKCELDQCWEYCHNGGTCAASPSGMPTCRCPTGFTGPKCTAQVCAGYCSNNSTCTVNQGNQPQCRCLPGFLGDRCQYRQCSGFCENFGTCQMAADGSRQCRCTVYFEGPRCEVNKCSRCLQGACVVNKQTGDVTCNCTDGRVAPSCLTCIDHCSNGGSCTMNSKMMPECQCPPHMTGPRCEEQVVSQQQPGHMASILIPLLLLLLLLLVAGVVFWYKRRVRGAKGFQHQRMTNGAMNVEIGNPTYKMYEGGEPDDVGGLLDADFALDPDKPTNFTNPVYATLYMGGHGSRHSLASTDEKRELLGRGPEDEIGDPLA
T1 sequence (Q91ZX7 20-4545): as above
T4 sequence (Q07954 3313-3759): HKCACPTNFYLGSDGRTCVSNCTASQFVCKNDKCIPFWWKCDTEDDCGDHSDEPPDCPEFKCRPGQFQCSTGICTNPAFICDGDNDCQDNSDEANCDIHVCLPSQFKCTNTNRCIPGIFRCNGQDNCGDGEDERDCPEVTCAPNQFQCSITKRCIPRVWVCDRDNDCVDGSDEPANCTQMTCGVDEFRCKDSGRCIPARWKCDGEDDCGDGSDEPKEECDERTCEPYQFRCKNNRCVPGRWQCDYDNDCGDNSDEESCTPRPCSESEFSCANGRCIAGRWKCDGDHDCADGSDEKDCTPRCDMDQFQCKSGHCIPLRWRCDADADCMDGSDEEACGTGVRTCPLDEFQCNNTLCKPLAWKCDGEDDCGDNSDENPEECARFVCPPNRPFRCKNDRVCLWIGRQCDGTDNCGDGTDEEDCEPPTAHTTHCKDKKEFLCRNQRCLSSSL

Substance	effect on Aβ elimination from brain [1]	Binding of Aβ peptides to LRP-1 cluster II in the presence of RAP (LRP-1 cluster II)	effect on Aβ1-40 brain capillary uptake ([2]; Aβ1-40 at 120 nM, RAP 1 μM, αLRP-1 60 μg/ml, NI IgG 60 μg/ml)	effect on 125I-Aβ1-40 uptake before (total) and after mild acid wash ([2]; RAP 500 nM, 37° C.)	Binding of Aβ peptides to LRP-1 cluster IV in the presence of RAP (LRP-1 cluster IV)	lower affinity (Ki) for LRP-mediated clearance on brain capillaries than Aβ1-40 [2] [fold]
RAP: human recombinant receptor-associated protein, an LRP-1 antagonist	almost completely abolished	abolished	completely inhibited; also recorded: abolished	blocked	abolished	
Dutch Aβ1-42: Dutch (E22Q) mutant Aβ1-42 peptide						18
Dutch Aβ1-40: Dutch (E22Q) mutant Aβ1-40 peptide						6
